Data set [1] can be described thus: Optic nerve crush (ONC) model: PEG-A1 penetration (Western blot, flat-mount immunolabeling). Particulars: Western blot at 24 hours, flat-mount immunolabeling at 7 days. In kind it is in vivo, mouse. How it is done:
(§1) Mouse retinal ischemia-reperfusion (IR) injury and traumatic optic neuropathy (TON) models: All experiments were performed in accordance with the ARVO Statement for the Use of Animals in Ophthalmic and Vision Research and were approved by the institutional animal care and use committee (Animal Welfare Assurance no. D16-00197). Wild-type (WT) C57BL/6J mice (10-12 weeks old) were anesthetized using ketamine/xylazine mixture then subjected to retinal ischemia-reperfusion (IR) injury or optic nerve crush (ONC) to model traumatic optic neuropathy (TON) as described in Shosha, et al., Cell death & disease, 7:e2483-e (2016) and Xu, et al., Frontiers in Neuroscience, 12:970 (2018). Mice were sacrificed at 24 hours or 7 days after by deep anesthesia followed by trans-cardial perfusion with PBS or thoracotomy and eyeballs were collected and fixed in 4% PFA for immunolabeling or retinas were extracted without fixation and homogenized in Radioimmunoprecipitation Assay (RIPA) lysis buffer for Western blotting.
Western blotting: Western blotting on retina or brain was conducted as described in Fouda, A Y, et al., Cell death & Disease, 9:1001 (2018). Membranes were probed with anti-PEG (RevMAb Biosciences, 1:1000) and anti-albumin (Bethyl Laboratories, 1:5000). Uncropped blots are included in FIG. 22. […]

The test system of data set [2] is primary rat retinal mixed neurons. Kind of data set: Primary retinal mixed neurons subjected to OGD/R, LDH release assay. The settings on record: 6 hours OGD and 18 hours reperfusion, PEG-A1 1 μg/mL at reoxygenation.
Method: Retinas from ten pups were collected and washed twice with ice-cold 1×PBS. They were digested with 0.5% trypsin for 3-4 min at 37° C., followed by trypsin inactivation with the culture medium, DMEM/F12 (Gibco, Grand Island, N.Y.) plus 10% FBS and 1% Penicillin-Streptomycin (P/S) solution (Invitrogen, Grand Island, N.Y.). The retina tissue was mechanically dissociated by pipetting several times until cells were dispersed. Cells were then filtered through a 40 μm nylon-mesh filter, collected by centrifugation at 1000 rpm for 10 min, re-suspended in culture medium, and plated in 6 or 12 well-cell culture plates (Corning, Corning, N.Y.) coated with Poly-D-lysine hydrobromide (PDL, Sigma) at a density of 0.5×10^6 cells/mL. The plates were maintained in a humidified CO2 incubator at 37° C. and 5% CO2. At days 1, 2, and 3 in vitro (DIV), half of the medium was aspirated and replaced with Neurobasal A medium containing 1×B-27 (GIBCO), 1× glutaMAX (GIBCO) and 1% P/S. Experiments were conducted at DIV 6.
The test system of data set [3] is OIR retinas (TNFα, IL-6, MCP1, iNOS, A1, FGF2, CNTF, IL-10 mRNA). Put plainly: OIR mouse model: qPCR of retinal inflammation markers and growth factors. In kind it is in vivo. How it is done:
PBS was used as vehicle control. Pups were anesthetized before treatment by intraperitoneal (i.p.) injection of ketamine/xylazine mixture. Intravitreal injections were performed using a 36-gauge NanoFil needle mounted to a 10-μL Hamilton syringe (World Precision Instruments). Two treatment strategies were employed. […] The P9 time point was selected based on the fact that vaso-obliteration occurs within the first 48 hours of hyperoxia treatment (Connor, et al., Nature Protocols, 4:1565-1573 (2009); Lange, et al., Graefe's archive for clinical and experimental ophthalmology, 247:1205-1211 (2009); Gu, et al., Investigative ophthalmology & visual science, 43:496-502 (2002)).
However, variability was relatively high in the OIR retinas and this protective effect was statistically significant only for TNFα.

The subject of data set [4] is WT C57BL/6J mice subjected to retinal ischemia-reperfusion (IR) injury. Kind of data set: Retinal ischemia-reperfusion (IR) injury: neuronal survival by NeuN labeling of retinal flat-mounts. In kind it is in vivo, mouse. The settings on record: 25 mg/kg i.p. at 3 hours and day 4, 7 days post-injury; vehicle group 40%. How it is done:
as §1, with “Mice were sacrificed at 24 hours or 7 days after by deep anesthesia followed by trans-cardial perfusion with PBS or thoracotomy and eyeballs were collected and fixed in 4% PFA for immunolabeling or retinas were extracted without fixation and homogenized in Radioimmunoprecipitation Assay (RIPA) lysis buffer for Western blotting.” left out
Evaluation of retinal neurodegeneration: Retina flat-mounts and explants were immunolabeled for the neuronal marker, NeuN (Millipore), as previously described in Shosha, et al., Cell death & disease, 7:e2483-e (2016). Images were collected and analyzed in a blinded fashion using a semi-automated method. […] NeuN-positive cells were quantified using ImageJ software ‘Batch processing’ function. […] The macro was validated every time it was used to make sure it is compatible with the set of images being analyzed. […]

Where [5] appears, read: OIR retinas, P13 or P17, not statistically significant.
Setting [6] is: OIR retinas, did not reach statistical significance.

The values that follow come from patent US20210340516A1, “COMPOSITIONS CONTAINING ARGINASE 1 FOR THE TREATMENT OF NEUROVASCULAR AND RETINAL VASCULAR DISORDERS” (Augusta University Research Institute, Inc., priority 2020, published 2021).

B1: PEG-A1: recombinant human arginase (rhArg) covalently attached to methoxy polyethylene glycol (mPEG-SPA; MW 5,000) via succinamide propionic acid (SPA) linker (protein, UniProt P05089 1-322, looked up)
Arginase-1: MSAKSRTIGIIGAPFSKGQPRGGVEEGPTVLRKAGLLEKLKEQECDVKDYGDLPFADIPNDSPFQIVKNPRSVGKASEQLAGKVAEVKKNGRISLVLGGDHSLAIGSISGHARVHPDLGVIWVDAHTDINTPLTTTSGNLHGQPVSFLLKELKGKIPDVPGFSWVTPCISAKDIVYIGLRDVDPGEHYILKTLGIKYFSMTEVDRLGIGKVMEETLSYLLGRKKRPIHLSFDVDGLDPSFTPATGTPVVGGLTYREGLYITEEIYKTGLLSGLDIMEVNPSLGKTPEEVTRTVNTAVAITLACFGLAREGNHKPIDYLNPPK
modifications: mPEG-SPA 5 kDa conjugate
notes: recombinant human arginase (rhArg) covalently attached to methoxy polyethylene glycol (mPEG-SPA; MW 5,000) via succinamide propionic acid (SPA) linker
For the molecule B1, in data set [1], the “penetration into brain or sham contralateral retina/optic nerve after ONC” value is reported as “not into the brain or sham contralateral retina/optic nerve” and the “penetration into retina/optic nerve tissue after ONC” value is given as “effective penetration”. For the same molecule, the “cell death (LDH release)” value in data set [2] is on record as “increased cell death”. The “iNOS mRNA levels” value in data set [3] (OIR WT retinas) is “significantly reduced”. In data set [3] (OIR retinas), the “A1 mRNA” value is given as “mRNA upregulation” and the “FGF2 mRNA” value was “mRNA upregulation”. In data set [3] (setting [5]), the “IL-6 expression (qPCR)” value is “reduced the expression” and the “MCP1 expression (qPCR)” value is on record as “reduced the expression”. In addition, the “TNFα expression (qPCR)” value in data set [3] (OIR retinas, P13 or P17, statistically significant) is “reduced the expression”. Besides, in data set [3] (setting [6]), the “CNTF mRNA” value is recorded as “mRNA upregulation” and the “IL-10 mRNA” value is “mRNA upregulation”. In addition, the “neuronal survival after retinal IR (NeuN, % of sham retina)” value in data set [4] is 62%.
